# From PMC3343115, “Selective Blockade of Trypanosomatid Protein Synthesis by a Recombinant Antibody Anti-Trypanosoma cruzi P2β Protein” (PLoS ONE, 2012)
# T1: R13 peptide (C-terminal epitope of T. cruzi P1α, P1β, P2α and P2β) (Trypanosoma cruzi)
# T1 construct: the text prints only the motif 3-EdDDmGF-9; the peptide is also in PDB 3SGE; source: synthetic peptide
# T1 chain: EEEDDDMGFGLFD
# T2: P015 peptide (C-terminal region of T. cruzi P0) (Trypanosoma cruzi, UniProt P26796)
# T2 construct: C-terminal region of the Trypanosoma cruzi ribosomal P0 protein (TcP0), called P015; aspartic acid in place of glycine 8 of R13; source: synthetic peptide
# T2 chain: EEEDDDDDFGMGALF
# Assays:
# [1] = biological target: T. cruzi ribosomal P0 protein (Trypanosoma cruzi, strain  in …, UniProt P26796); experiment: cell-based or functional assay
# [2] = biological target: T3, TcP2β-GST fusion protein (Trypanosoma cruzi ribosomal P2β protein) (Trypanosoma cruzi, strain , UniProt P26795); experiment: SPR; competition on BIACORE 3000: TcP2β-GST immobilised by amine coupling at 0.05 pmol/mm2; scFv C5 pre-incubated 30 min with different concentrations of peptide, injected 2 min, 3 min dissociation, 30 µl/min; HBS-EP buffer pH 7.4, 150 mM NaCl; IC50 from the decrease in the initial linear kinetics; conditions: both partners purified
# T3 construct: Trypanosoma cruzi ribosomal P2β protein (TcP2β), recombinant; also called recombinant TcP2β protein
# [3] = biological target: T1, R13 peptide (C-terminal epitope of T. …); experiment: as above; conditions: both partners purified
# [4] = biological target: T2, P015 peptide (C-terminal region of T. …); experiment: as above; conditions: both partners purified
# T3 sequence (P26795 whole entry, the tested form may be a part): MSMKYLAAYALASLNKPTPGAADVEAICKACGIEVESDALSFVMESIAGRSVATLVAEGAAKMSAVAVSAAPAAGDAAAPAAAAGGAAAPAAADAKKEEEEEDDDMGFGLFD
# Sequence of T. cruzi ribosomal P0 protein (P26796 whole entry, looked up, the tested form may be a part): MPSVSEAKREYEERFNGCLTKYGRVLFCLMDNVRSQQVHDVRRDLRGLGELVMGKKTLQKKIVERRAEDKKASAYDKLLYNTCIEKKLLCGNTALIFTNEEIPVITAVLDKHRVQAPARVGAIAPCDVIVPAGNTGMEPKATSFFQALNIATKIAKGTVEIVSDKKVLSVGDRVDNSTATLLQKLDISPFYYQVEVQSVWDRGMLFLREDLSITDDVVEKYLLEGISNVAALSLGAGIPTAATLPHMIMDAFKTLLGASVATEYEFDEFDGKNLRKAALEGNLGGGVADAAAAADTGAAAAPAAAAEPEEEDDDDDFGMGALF
binder,measurement,setting,value
"single chain recombinant antibody C5 (scFv C5) (scFv, V domains shown, VH of scFv C5, which derives from the parental monoclonal antibody 17.2; heavy chain variable domain of mAb 17.2 in PDB 3SGE (complex with R13) and 3SGD (apo); linker between the variable domains; VL of scFv C5, which derives from the parental monoclonal antibody 17.2; light chain variable domain of mAb 17.2 in PDB 3SGE (complex with R13) and 3SGD (apo); The His tag is known from detection with …) VH: EVQLEESGGRLVQPKGSLKLSCAASGFSFNTNAMNWVRQAPGKGLEWVARIRSKINNYSTYYADSVKDRFTISRDDSQSMLYLQMNNLKTEDTAMYYCVRGTTYWGQGTLVTVSA VL: not shown","inhibition of in vitro protein synthesis ([35S]-methionine incorporation) by T. cruzi ribosomes (about 130 nM), dose-response of scFv C5, IC50",[1],~62.4 nM
same,binding result,[2],binds
same,IC50,[3],2370 ± 230 nM
same,IC50,[4],22600 ± 2030 nM
